Experimental findings from patent publication US20220387578A1 (VANDERBILT UNIVERSITY, published 2022) are described below.

Positions count from the first letter of the chain named.

One experiment concerns the target T1, eHead_H1_g2.10_mC.
T1 chain: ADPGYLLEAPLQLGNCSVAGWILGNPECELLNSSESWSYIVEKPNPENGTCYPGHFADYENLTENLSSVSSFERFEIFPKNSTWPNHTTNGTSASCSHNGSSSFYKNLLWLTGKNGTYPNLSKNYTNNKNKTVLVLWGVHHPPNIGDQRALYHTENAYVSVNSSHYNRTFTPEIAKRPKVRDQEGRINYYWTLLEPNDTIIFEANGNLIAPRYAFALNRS
In words: SPR; y axis without title or unit.

The next experiment addresses T2, eHead_H1_v3.0_mC.
T2 engineered HA head domain: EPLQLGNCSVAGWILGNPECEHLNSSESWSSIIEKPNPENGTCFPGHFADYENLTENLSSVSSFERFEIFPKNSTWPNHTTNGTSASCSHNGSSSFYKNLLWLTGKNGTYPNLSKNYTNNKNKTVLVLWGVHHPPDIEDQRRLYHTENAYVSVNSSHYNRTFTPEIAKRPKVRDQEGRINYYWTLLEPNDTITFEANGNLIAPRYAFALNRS
In words: SPR; y axis without title or unit.

In the next experiment the target is T3, eHead_H1_v3.1_KO3_mC.
T3 chain: T2 engineered HA head domain with P45W, D139R
Kind of experiment: SPR.

The target in a further experiment is T4, eHead_H1_v3.1_KO1_mC.
T4 chain: T2 engineered HA head domain with E1L, D139R, R178A
In words: SPR.

B1: FluA20 (as used in the SPR experiments of Example 4) (antibody, V domains shown)
VH: QVQLQESGPGLVKPSETLSLTCSVSGVSVTSDIYYWTWIRQPPGKGLEWIGYIFYNGDTNYNPSLKSRVTMSIDTSKNEFSLRLTSVTAADTAVYFCARGTEDLGYCSSGSCPNHWGQGTLVTVSS
VL: DIQMTQSPSSLSASIGDRVTITCRPSQNIRSFLNWFQHKPGKAPKLLIYAASNLQSGVPSRFSGSGSGTEFTLTIRSLQPEDFATYYCQQSYNTPPTFGQGTKVEIK
Turning to B1, the binding result is “binds” in the experiment with eHead_H1_g2.10_mC, “binds” with eHead_H1_v3.0_mC, “no binding” with eHead_H1_v3.1_KO3_mC and “no binding” in the experiment with eHead_H1_v3.1_KO1_mC.
